Assay results taken from patent US20230213527A1 (QUANTUM SI, published 2023).
Square brackets hold non-standard residues; d marks the D form. Primed or numbered codes have the meaning given here. Ends that are not written are not given here. Lys(N3) = [N-]=[N+]=NCCCC[C@H](N)C(=O)O; Met(O) = CS(=O)CC[C@H](N)C(=O)O; FITC′ = not defined here

Experiments:
[1] = target: T1, … (SEQ ID NO: 798), state with N-terminal leucine (LAFAYPDDD) (not fully specified (C-terminus); also: C-terminal azidolysine conjugated to DNA-streptavidin linker); assay: single-molecule on-chip dynamic sequencing; recognition of N-terminal leucine
T1 construct: residue range inferred from the recognized N-terminal residue
T1 peptide: LAFAYPDDD
Experimental: (§1) To illustrate how the kinetic parameters acquired from sequencing are sensitive to changes in sequence composition, sequencing was performed with a set of three peptides […] (SEQ ID NO: 798), […] (SEQ ID NO: 799), and […] (SEQ ID NO: 800)—that differ only at a single position, located immediately downstream from the PS961 N-terminal target leucine.
(§2) The semiconductor chip was placed in the sequencing device and a chip check was performed to test electronic circuit function and to optimize laser coupling alignment. The chip was then removed from the device socket and the chip was washed twice with 50 μL of 70% isopropanol, followed by four washes with 30 μL of wash buffer (50 mM MOPS pH 8.0, 60 mM potassium acetate, 50 mM glucose, 20 mM magnesium acetate, and surfactant mix) through a flow cell attached to the chip. A second chip check was then performed. The laser was then blocked via an integrated software-controlled shutter, peptide complex was added to a final concentration of 1-10 nM and mixed thoroughly, and the chip was incubated for 15 min. The chip was then washed six times with wash buffer, followed by addition of an imaging solution (wash buffer with 5 mM Trolox and an oxygen scavenging system). The laser was unblocked and the occupancy percentage (target 10-30%, Poisson distributed) was recorded by acquiring a photobleaching signal from a fluorophore attached to the peptide complex during 5 min of laser illumination. For NAA recognition-only assays, after peptide loading, labeled recognizer was added to a final concentration of 50 nM PS610, 100 nM PS691, or 250 nM PS961 (as indicated according to the experiment), and data was recorded for 10 hours.

[2] = target: T2, … (SEQ ID NO: 799), state with N-terminal leucine (LIFAYPDDD) (not fully specified (C-terminus); also: C-terminal azidolysine conjugated to DNA-streptavidin linker); assay: as above
T2 construct: residue range inferred from the recognized N-terminal residue
T2 peptide: LIFAYPDDD
Experimental: as §1, §2

[3] = target: T3, … (SEQ ID NO: 800), state with N-terminal leucine (LVFAYPDDD) (not fully specified (C-terminus); also: C-terminal azidolysine conjugated to DNA-streptavidin linker); assay: as above
T3 construct: residue range inferred from the recognized N-terminal residue
T3 peptide: LVFAYPDDD
Experimental: as §1, §2

[4] = target: T4, synthetic peptide … (SEQ ID NO: 794), state with N-terminal isoleucine (IFAG) (human, not fully specified (C-terminus); also: C-terminal azidolysine conjugated to DNA-streptavidin linker); assay: single-molecule on-chip dynamic sequencing with PS610, PS961, PS691, PhTET2 and PhTET3
T4 construct: residue range inferred from the recognized N-terminal residue
T4 peptide: IFAG
Experimental: (§3) The transition from leucine to isoleucine recognition by PS961 is readily identified as a sharp change in average PD. This overall pattern is replicated across many instances of sequencing of the same peptide, with similar PD statistics across traces, as each peptide molecule follows the same reaction pathway over the course of the sequencing run (FIGS. 3B-3C).
as §2, with “A second chip check was then performed. The laser was then blocked via an integrated software-controlled shutter, peptide complex was added to a final concentration of 1-10 nM and mixed thoroughly, and the chip was incubated for 15 min. The chip was then washed six times with wash buffer, followed by addition of an imaging solution (wash buffer with 5 mM Trolox and an oxygen scavenging system).” left out, “hours. […] Data was recorded for 15 min. […] The laser was then unblocked, and data was recorded for 10 hours.” for “hours.”

[5] = target: T5, synthetic peptide … (SEQ ID NO: 794), state with N-terminal leucine (LIFAG) (human, not fully specified (C-terminus); also: C-terminal azidolysine conjugated to DNA-streptavidin linker); assay: as above
T5 construct: residue range inferred from the recognized N-terminal residue
T5 peptide: LIFAG
Experimental: as §3
as §2, with “A second chip check was then performed. The laser was then blocked via an integrated software-controlled shutter, peptide complex was added to a final concentration of 1-10 nM and mixed thoroughly, and the chip was incubated for 15 min. The chip was then washed six times with wash buffer, followed by addition of an imaging solution (wash buffer with 5 mM Trolox and an oxygen scavenging system).” left out, “hours. […] Data was recorded for 15 min. […] The laser was then unblocked, and data was recorded for 10 hours.” for “hours.”

[6] = target: T6, RLMoFAYPDDD (SEQ ID NO: 858), state with N-terminal methionine sulfoxide (MoFAYPDDD) (also: C-terminal azidolysine conjugated to DNA-streptavidin linker); assay: single-molecule on-chip dynamic sequencing
T6 construct: residue range inferred
T6 peptide: [Met(O)]FAYPDDD[Lys(N3)]

[7] = target: T7, … (SEQ ID NO: 801), state with N-terminal methionine (MFAYPDDD) (not fully specified (C-terminus); also: C-terminal azidolysine conjugated to DNA-streptavidin linker); assay: single-molecule on-chip dynamic sequencing
T7 construct: residue range inferred from the recognized N-terminal residue
T7 peptide: MFAYPDDD

[8] = target: T8, labeled peptide with N-terminal methionine (XAKLDEESILKQK-FITC, SEQ ID NO: 833, X = M); assay: fluorescence polarization titration, FITC-labeled peptide (FIG. 9D)
T8 peptide: MAKLDEESILKQK-{FITC′}
Experimental: As an example, methionine oxidation was examined. The thioether moiety of the methionine side chain is susceptible to oxidation during peptide synthesis and sequencing. […] It was determined computationally that methionine sulfoxide is highly unfavorable in the PS961 NAA binding pocket and that non-polar residues are preferred at P2 (FIG. 9E). The synthetic peptide […] (SEQ ID NO: 801) was sequenced, and two populations of traces with distinct kinetic signatures were observed—a first population containing leucine recognition with median PD of 0.86 s, and a second population with median PD of 0.35 s (FIG. 4C).
Binding affinity was measured by polarization using a labeled peptide. The polarization response and total intensity measurements were carried out at 20° C. on a microplate fluorometer with 480 nm excitation and 530 nm emission. The interaction of recognizer with labeled peptide containing a target N-terminal residue (XAKLDEESILKQK-FITC (SEQ ID NO: 833)) was performed in PBS buffer at pH 7.4 and readings were collected after 30 min. Multiple analyses were performed at increasing recognizer concentration at a fixed concentration of a target peptide to obtain a titration curve. An equilibrium polarization response at each concentration was plotted and fit to calculate the KD.

B1: PS961 (designed binder)
chain: MPTAASATESAIEDTPAPARPEVDGRTKPKRQPRYHVVLWDDDDHTYQYVVVMLRSLFGHPPSRGYRMAKEMDTQGRVIVLTTTREHAELKRDQIHAFGRDRLLARSKGSMKASIEAEE
notes: also called PS961 (L, I, V); PS961 (LIV)
Question: Which “median pulse duration (PD)” value [1] does the source give for B1 here?
Answer: The value was 1.29 s.

Question: What about the “median pulse duration (PD)” value [2] of the same binder?
Answer: The value was 2.22 s.

Question: What about the “median pulse duration (PD)” value [3] of the same binder?
Answer: The value was 4.21 s.

Question: Does B1 bind [4]?
Answer: Result: binds

Question: Does B1 bind [5]?
Answer: Result: binds

Question: Does B1 bind [6]?
Answer: Result: no binding (tested: 250 nM PS961)

Question: Does B1 bind [7]?
Answer: Result: binds

Question: And the Kd [8]?
Answer: The Kd was 947 nM.
